Measurements as given in paper PMC4899112.

Target: VEGF (UniProt P15692)
Assay: native MS

VEGF (from UniProt P15692-4 1-191) (ligand)
stoichiometry N: 2
